Assay results: IntAct's records for PubMed 32296183

B1: Ceroid-lipofuscinosis neuronal protein 6 (Homo sapiens), Q9NWW5 (parent)
chain: MEATRRRQHLGATGGPGAQLGASFLQARHGSVSADEAARTAPFHLDLWFYFTLQNWVLDFGRPIAMLVFPLEWFPLNKPSVGDYFHMAYNVITPFLLLKLIERSPRTLPRSITYVSIIIFIMGASIHLVGDSVNHRLLFSGYQHHLSVRENPIIKNLKPETLIDSFELLYYYDEYLGHCMWYIPFFLILFMYFSGCFTASKAESLIPGPALLLVAPSGLYYWYLVTEGQIFILFIFTFFAMLALVLHQKRKRLFLDSNGLFLFSSFALTLLLVALWVAWLWNDPVLRKKYPGVIYVPEPWAFYTLHVSSRH
partner: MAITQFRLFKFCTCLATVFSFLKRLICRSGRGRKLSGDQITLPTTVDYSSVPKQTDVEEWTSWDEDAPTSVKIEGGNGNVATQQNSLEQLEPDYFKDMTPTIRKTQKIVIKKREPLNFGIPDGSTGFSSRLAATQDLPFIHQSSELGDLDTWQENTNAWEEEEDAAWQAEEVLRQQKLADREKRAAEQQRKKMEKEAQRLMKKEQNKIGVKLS
B2: Catenin alpha-3 (Homo sapiens), Q9UI47-2 (parent)
chain: MSAETPITLNIDPQDLQVQTFTVEKLLEPLIIQVTTLVNCPQNPSSRKKGRSKRASVLLASVEEATWNLLDKGEKIAQEATVLKDELTASLEEVRKESEALKVSAERFTDDPCFLPKREAVVQAARALLAAVTRLLILADMIDVMCLLQHVSAFQRTFESLKNVANKSDLQKTYQKLGKELENLDYLAFKRQQDLKSPNQRDEIAGARASLKENSPLLHSICSACLEHSDVASLKASKDTVCEEIQNALNVISNASQGIQNMTTPPEPQAATLGSALDELENLIVLNPLTVTEEEIRPSLEKRLEAIISGAALLADSSCTRDLHRERIIAECNAIRQALQDLLSEYMNNAGKKERSNTLNIALDNMCKKTRDLRRQLRKAIIDHVSDSFLDTTVPLLVLIEAAKNGREKEIKEYAAIFHEHTSRLVEVANLACSMSTNEDGIKIVKIAANHLETLCPQIINAALALAARPKSQAVKNTMEMYKRTWENHIHVLTEAVDDITSIDDFLAVSGMFLFF
partner: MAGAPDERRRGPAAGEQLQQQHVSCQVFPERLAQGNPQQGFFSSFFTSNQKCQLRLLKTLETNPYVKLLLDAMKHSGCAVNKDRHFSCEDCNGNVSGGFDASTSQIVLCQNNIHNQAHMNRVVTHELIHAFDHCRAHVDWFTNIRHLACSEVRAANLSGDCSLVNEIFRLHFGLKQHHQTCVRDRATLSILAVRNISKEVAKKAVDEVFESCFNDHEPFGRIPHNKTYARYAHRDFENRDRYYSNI
B3: Catenin alpha-3 (Homo sapiens), Q9UI47-2 (parent)
chain: B2 chain
partner: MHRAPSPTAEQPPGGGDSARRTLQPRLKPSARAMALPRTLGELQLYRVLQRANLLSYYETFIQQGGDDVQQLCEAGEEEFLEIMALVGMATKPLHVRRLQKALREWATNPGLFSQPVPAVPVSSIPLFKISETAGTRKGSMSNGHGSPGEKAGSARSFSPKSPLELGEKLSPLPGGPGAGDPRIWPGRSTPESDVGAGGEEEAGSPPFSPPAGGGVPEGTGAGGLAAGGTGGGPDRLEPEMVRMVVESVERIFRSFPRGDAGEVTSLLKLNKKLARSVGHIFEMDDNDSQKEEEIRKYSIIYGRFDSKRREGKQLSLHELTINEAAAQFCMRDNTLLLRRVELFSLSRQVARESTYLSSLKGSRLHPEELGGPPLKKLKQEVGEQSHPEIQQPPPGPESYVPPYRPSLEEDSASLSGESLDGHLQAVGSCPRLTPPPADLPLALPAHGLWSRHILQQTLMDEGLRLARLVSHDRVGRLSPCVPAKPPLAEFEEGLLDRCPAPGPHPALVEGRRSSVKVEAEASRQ
B4: Catenin alpha-3 (Homo sapiens), Q9UI47-2 (parent)
chain: B2 chain
partner: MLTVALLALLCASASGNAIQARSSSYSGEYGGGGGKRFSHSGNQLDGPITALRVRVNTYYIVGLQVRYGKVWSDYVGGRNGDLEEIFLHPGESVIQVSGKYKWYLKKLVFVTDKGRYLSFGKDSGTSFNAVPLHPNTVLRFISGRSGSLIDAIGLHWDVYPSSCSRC
B5: Golgi SNAP receptor complex member 2 (Homo sapiens), O14653 (parent)
chain: MDPLFQQTHKQVHEIQSCMGRLETADKQSVHIVENEIQASIDQIFSRLERLEILSSKEPPNKRQNARLRVDQLKYDVQHLQTALRNFQHRRHAREQQERQREELLSRTFTTNDSDTTIPMDESLQFNSSLQKVHNGMDDLILDGHNILDGLRTQRLTLKGTQKKILDIANMLGLSNTVMRLIEKRAFQDKYFMIGGMLLTCVVMFLVVQYLT
partner: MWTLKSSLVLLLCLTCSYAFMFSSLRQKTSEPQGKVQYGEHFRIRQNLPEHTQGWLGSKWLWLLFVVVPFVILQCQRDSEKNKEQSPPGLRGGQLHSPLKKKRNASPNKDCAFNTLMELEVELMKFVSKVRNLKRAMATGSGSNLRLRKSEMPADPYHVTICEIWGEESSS
B6: Golgi SNAP receptor complex member 2 (Homo sapiens), O14653 (parent)
chain: B5 chain
partner: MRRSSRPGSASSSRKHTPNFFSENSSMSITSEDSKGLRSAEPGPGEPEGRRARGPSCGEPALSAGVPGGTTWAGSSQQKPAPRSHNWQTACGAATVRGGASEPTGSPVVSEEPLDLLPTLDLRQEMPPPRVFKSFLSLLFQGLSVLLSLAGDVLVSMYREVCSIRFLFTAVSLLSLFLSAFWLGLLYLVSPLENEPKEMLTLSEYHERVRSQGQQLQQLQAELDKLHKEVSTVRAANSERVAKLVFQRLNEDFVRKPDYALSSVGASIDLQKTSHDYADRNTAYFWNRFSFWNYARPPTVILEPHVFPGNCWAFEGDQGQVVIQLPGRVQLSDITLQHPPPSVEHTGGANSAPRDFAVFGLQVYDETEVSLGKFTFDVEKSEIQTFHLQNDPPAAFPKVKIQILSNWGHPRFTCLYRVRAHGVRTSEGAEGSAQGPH
B7: Golgi SNAP receptor complex member 2 (Homo sapiens), O14653 (parent)
chain: B5 chain
partner: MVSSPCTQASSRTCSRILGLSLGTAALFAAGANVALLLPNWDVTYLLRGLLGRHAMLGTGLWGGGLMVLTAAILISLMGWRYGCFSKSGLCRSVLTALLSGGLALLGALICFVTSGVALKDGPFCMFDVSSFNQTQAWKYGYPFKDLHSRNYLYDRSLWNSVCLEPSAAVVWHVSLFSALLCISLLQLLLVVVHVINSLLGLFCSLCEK
B8: Catenin alpha-3 (Homo sapiens), Q9UI47-2 (parent)
chain: B2 chain
partner: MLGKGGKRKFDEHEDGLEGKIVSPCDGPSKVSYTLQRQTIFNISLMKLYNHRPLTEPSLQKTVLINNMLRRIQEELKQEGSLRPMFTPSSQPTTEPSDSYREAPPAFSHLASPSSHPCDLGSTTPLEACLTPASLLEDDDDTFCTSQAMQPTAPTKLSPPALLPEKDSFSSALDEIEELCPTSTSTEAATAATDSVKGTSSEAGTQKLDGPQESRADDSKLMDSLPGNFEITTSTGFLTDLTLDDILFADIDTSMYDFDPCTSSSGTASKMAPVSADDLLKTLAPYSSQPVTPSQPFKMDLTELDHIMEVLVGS
B9: Catenin alpha-3 (Homo sapiens), Q9UI47-2 (parent)
chain: B2 chain
partner: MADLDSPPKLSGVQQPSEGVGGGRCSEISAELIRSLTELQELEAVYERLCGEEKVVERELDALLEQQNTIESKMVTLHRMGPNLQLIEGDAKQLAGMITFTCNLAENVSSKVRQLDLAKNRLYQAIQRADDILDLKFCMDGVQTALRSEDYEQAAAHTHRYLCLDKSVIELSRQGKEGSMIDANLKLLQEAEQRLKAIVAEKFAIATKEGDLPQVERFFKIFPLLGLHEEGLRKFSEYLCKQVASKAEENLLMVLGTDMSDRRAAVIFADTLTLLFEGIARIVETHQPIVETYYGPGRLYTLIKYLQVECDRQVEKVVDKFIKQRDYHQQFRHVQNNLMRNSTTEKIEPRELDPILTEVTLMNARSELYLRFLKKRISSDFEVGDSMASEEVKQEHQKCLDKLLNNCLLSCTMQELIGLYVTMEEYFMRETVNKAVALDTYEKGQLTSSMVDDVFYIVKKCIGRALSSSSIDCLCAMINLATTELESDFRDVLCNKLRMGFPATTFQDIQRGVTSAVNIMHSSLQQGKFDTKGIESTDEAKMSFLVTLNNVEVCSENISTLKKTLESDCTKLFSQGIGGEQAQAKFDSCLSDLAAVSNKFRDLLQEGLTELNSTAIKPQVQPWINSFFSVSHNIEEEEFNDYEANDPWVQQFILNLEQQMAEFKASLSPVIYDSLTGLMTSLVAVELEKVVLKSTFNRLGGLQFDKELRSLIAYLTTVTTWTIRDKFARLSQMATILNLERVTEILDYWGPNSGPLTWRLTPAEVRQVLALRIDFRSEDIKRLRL

Variants of: B1
Details: with rcas1_human EBAG9, O00559
For R6T, the “effect of a mutation on the interaction” value was “with no effect”. For L47F, the “effect of a mutation on the interaction” value was “with no effect”. For G123D, the “effect of a mutation on the interaction” value was “with no effect”.

Variants of: B2
Details: with atp23_human ATP23, Q9Y6H3
For V94D, the “effect of a mutation on the interaction” value was “disrupting interaction strength”.

Variants of: B3
Details: with nab2_human NAB2, Q15742
In the case of V94D, the “effect of a mutation on the interaction” value is reported as “disrupting interaction strength”.

Variants of: B4
Details: with zg16_human ZG16, O60844
V94D was tested, and the “effect of a mutation on the interaction” value was “disrupting interaction strength”.

Variants of: B5
Details: with FAM209A
With G144W the “effect of a mutation on the interaction” value was “with no effect”.

Variants of: B6
Details: with spag4_human SPAG4, Q9NPE6
For G144W, the “effect of a mutation on the interaction” value was “with no effect”.

Variants of: B7
Details: with TM4SF19, Q96DZ7
In the case of G144W, the “effect of a mutation on the interaction” value is reported as “with no effect”.

Variants of: B8
Details: with srtd2_human SERTAD2, Q14140
For V94D, the “effect of a mutation on the interaction” value was “disrupting interaction strength”.

Variants of: B9
Details: with cog4_human COG4, Q9H9E3
In the case of V94D, the “effect of a mutation on the interaction” value is reported as “with no effect”.
